In patent publication US20030147810A1:

Legend:
[1] = molecular target: secreted alkaline phosphatase fused to the Swedish mutation of the BACE cleavage site in APP (…) and the KDEL sequence (UniProt P05187); assay: cell-based or functional assay
[2] = molecular target: secreted alkaline phosphatase with the wild type BACE cleavage site of amyloid precursor and the KDEL sequence (UniProt P05187); assay: cell-based or functional assay

- alkaline phosphatase activity in the conditioned media of transfected neuro-2 cells (chemiluminescence, photons) [1]: 3.46e+06 photons
- efficiency of secretion: alkaline phosphatase activity in the conditioned media of transfected neuro-2 cells, percent of control (no KDEL) [1]: 66 % of control
- alkaline phosphatase activity in the conditioned media of transfected neuro-2 cells (chemiluminescence, photons) [2]: 83700 photons
- alkaline phosphatase activity in the conditioned media of transfected neuro-2 cells, percent of control (no KDEL) [2]: 1.6 % of control
Substance: BACE (beta-site APP-cleaving enzyme)
